# Data taken from the DeepSol protein solubility set.
# Assay: soluble on expression in E. coli; label from the status in PepcDB or PDB records
row,Sequence,soluble on expression in E. coli
1,MKKEKLRTENISFQYPGAATYALKDVSFSLFEGEWVSVIGQNGSGKSTLAKLLNGLFLPEAGTITVNDTMILSEETVWDVRKQIGMVFQNPDNQFVGTTVQDDVVFGLENIGMPREQMVERLNQALRLVRMEDFLNDEPHSLSGGQKQRVAIAGVLALQPSILILDEATSMLDPQGRREVVETVRQLVNEKGITVLSITHDLEEAAQSDRVIILNKGEILEEGTPEQIFKSSHMLQEIGLDVPFSVKIAELLKRNEILLQNTHLTMESLVNELWRLHSKK,not soluble
2,MKKFFLFLVLPIFLFASPLKAVFDCAVGDLDWISLRLSLIKKTAEQLMEEGKSYRFVITIHSHCIKVVDADLKKFPESERRKIELIQSQLKTLKEMYSVDVKACQIAMNRGKIKKVPPFVETVPNSWITLIELQNKGFAFVPF,not soluble
3,MKKICMKNGMKIIYEYRESDITSFCVAFNAGAEREGKKERGLAHVVEHCIFKGTKKRSEAQINSEFDEIFGFNNAMTNFPYVIYYGTTLSKDFEKGFELYSDIIVNPTFSEEGFEEEKSIICEELTEWKDDKQQFCEDELLKNSFSNIRLKECIIGNEKNIKDFSIDELRKFYKKYYTSDNCVIGIVTSLKEEEVTDIINNYMTLSKREKPSLFDYEYEKNTSGIFTSKMDVKGAVIQYLFPIYKLKDDEIKALRAFNVIFGEGTSSMLYDKIRTKYGLAYDIYSKINNDGGIKLFYIGLGTASENFDKSIEFVNDTICEAKNLKGQFSSDKLLKIEKTMSLKRSLKLERSIQLAKELATYELMYGKAENVYDEVKDINLLNEDYIIEVVRSVLVTPSIQVVKPNK,not soluble
4,MKKIGIIGAGGIARAHATALSTIKNAELVGVYDINQQNAESFVKTFGGKSFENVDELIDASEGLIVASPNFCHKEHALQALGKHKHVLCEKPMAISLEEASIMKDTAERLSVRASMGFNYRYLSYVNILKSLIINNELGNILSIKVHFKKNSALRRKKFTWRDDANSKKTSGSLGDLGIHLIDMVWYLFESDFITESVRAKMNTNVKTKEDKQVLVDDYAEIYGQLRNKVFVNIITSKCSVPEDCGFSIEVVGHKKEFKYHTGNPHVYKLIDGLNVVDCPVPQSLLNDPPNEFYGWADSFRSELINWIASTQNDWVEIPSFSDGFRSQEVLEMFFEKDSNSQPMSVSAVNLEHHHHHH,not soluble
5,MKKIIGLVGTNSEQSTNRQLLQFMQHYFAQEADIELVEIVDFPMFNKPEDKVLPEIVKTVAEKIEAADGVIISTPEYDHAVPASLMNALSWLSYGIFPFVDKPVMITGASYGTLGSSRAQAHLRQILDAPELKARIMPSSEFLLAHSLQAFDENNALKDSEQIDKLAGLFADFCVFIEITEQLKHAHAQNKKEAENFSWETI,not soluble
6,MKKIPQISDAELEVMKVIWKHSSINTNEVIKELSKTSTWSPKTIQTMLLRLIKKGALNHHKEGRVFVYTPNIDESDYIEVKS,soluble
7,MKKLAAIISATLLFASSAAVAEVYVGGKVGKSWLDDACLAGQSCEDDDQVVGAFLGYQANKWLSLEAGYDYLGKFTAAGLNDEKVQAVTLAPKLSIPLTEGIALYGKVGGAYVDYGSKDDYSYLGAAGLEFNTNHNVTMRLEYQNLTDINNDIVRARAETATLGIAYKFGGSEEPAPVVEQRPAEPAPVAAPVEKVAVTKTFTFQHLDSSTFATASAELKPATVQKLDKIVGYLNQYPQAKVEVVGHTDSTGSEAYNQKLSERRAQAVAKALEAQGIDASRISAKGLGESSPIASNATAEGREKNRRVELVIPEFQYQVTE,not soluble
8,MKKLAIVIPAYKVDFFETVLFSLAQQTCKDFTVYIGEDCSRDDFKSLIEQYSKQLDIVYRRFEVNFGGHDLVAQWNRCIQLTQNEPWLWLFSDDDIMGPRCVEYFFNTIAIDNGAFDIYHFDVKIVDCENQIVRIPTVYPSVIDSETFYRRKASARLDSFVVEYIFLRDIYNCTGGFQHFDLAWGSDIATWVKIGADKGIKTISGDYVYWRKSKKNITPNMDNKMVLRKLTADIEFTHWINEFFHKSSVYRFTKYAFFRLVVHYSQAISKSQIRLLLDKAVGKNIISFNDAFIINWTYRFIQLAKRVKDVLYFLEHHHHHH,soluble
9,MKKLLFFTLLLFGVLSVRSLADGCNAQVCMCPNGGYVTTGQYCSTSSGESWIITPIIGTVAIDPATGKWASISNTKDRKEAKNDVLERCGSDCKVFMVDSKRCVGVAYSKSDKIIGSDSATDNFGGIGYNTRVERSNEKALKKCEKNGGKDCKIIANVCAVEGTTKY,not soluble
10,MKKLTFEIRSPAHQQNAIHAVQQILPDPTKPIVVTIQERNRSLDQNRKLWACLGDVSRQVEWHGRWLDAESWKCVFTAALKQQDVVPNLAGNGFVVIGQSTSRMRVGEFAELLELIQAFGTERGVKWSDEARLALEWKARWGDRAA,soluble
11,MKKMGGKIFAVRVTQGQEENTARLIYSKVKTYNLPIYAILAPSKVKGYIFIEAPEKSVVDEAIRGIRHARGVLPGEIPFSEIEHFLEEKPAVSGLEPGDIVELISGPFKGEKAKVVRVDESKDEIVVELIGAIVPIPVTVRGEYVRLISKRQKEE,soluble
12,MKKPIHSHRAATLYHFAFCLHNLRRSPNSPFTVRNRDEQKDEKPYENKGKINKFFLDLTYFQLPYPVSERAPLRLRAKIETREKINFKIRASSSPAVLVNFPFPRHSLLVSLSPAHETNNAVDGEALHPRAQRA,not soluble
13,MKKQLCMIALVGATAFGTTGTSWSLDGPPPPEPPPMGKGQEHFLERMASVLKLTDAQQAQIEALISTDAEQNAPLHRQLAENERALREATTAASLDEATVRALAATKGNLMTEMIVSRAKLRNAINAILTAEQRELADRLDPLKYGPPRPRPDRPGMELEHHHHHH,soluble
14,MKKQLDQLTAYTPGLSPESLKKQYGIRGELHKLASNENVYGPSPKVKTAIQSHLDELYYYPESGSPKLREAISQQLNVDASRILFGAGLDEVILMISRAVLSPGDKIITSESTFGQYYHNAIVESADVIQVPLKDGGFDLDGMLQQIDNKTSLIWLCNPNNPTGTYFSHDELFNFLKRVPSDIPVLIDEAYVEFVTADDFPDTLKLQEDFDNAFLLRTFSKAYGLAGLRVGYVIASEDAIEKWNIIRPPFNVTRISEYAAIAALEDQEYLKEVTQKNSFERDKFYQIPQSQHFLPSQANFVFVKTSRSQALYDALLNVGCITRLFPNGVRITIGLPEQNNKMIEVLKHFEY,not soluble
15,MKKQLLIVDGYNMIGAWPELVQLKKQERLEDARELLLSRLSNYAKYEGLEIIVVFDAQLVPGIQQTYKKYLLTVVFTKEDETADSYIERLAGEKNDRLTQVTVATSDLAEQWVVFSQGALRTSANELYKAVQKTEKTIAIHATDIHFQQFRRNSPWNVEQLSKLSEKLEELSQKKD,not soluble
16,MKKRQSCRSFDYSKPVSKEDLISILEAGRLSPSACNSQPYEVFVAQGEKAKIIADAKMGSFNKFIDDCNTFLVIAEDNYSLPAKIGSLIKKVDFKAIDIGILTANLVNAASALNLETCILGVFDEKRIQKLIERKKRIRLVIALGYPKEGYPLREKTRKDFDDNMHFLA,not soluble
17,MKKRYQTLNEHYRQLFGAKMFKVPIDAGFDCPNRDGTVAHGGCTFCTVSGSGDAIVAPDAPIKEQFYKEIDFMHRKWPDVNRYLVYFQNFTNTHDTVDVIRDRYEQAINEPGVVGINIGTRPDCLPDDTIAYLAELSERMHVTVELGLQTTYEETSRLINRAHSYDLYKETVRRLRHYPNINIVSHLINGLPKETHDMMLENVRRCVTDNDIQGIKLHLLHLMTNTRMQRDYHEGRLKLLSQKDYVSIICDQLEIIPKHIVIHRITGDAPRDMLIGPMWSLNKWEVLNAIDKEMERRGSFQGCKVD,not soluble
18,MKKTLPKTEAPSSVGNGSDSPIEFDAIIRQVPDMDAAYVEIPFDVKTVYGKGRVRVNATFDGYPYTGYIVRMGLPCHILGLRQDIRRAIGKQPGDSVYVTLLPL,soluble
19,MKKVAIVGLGWLGMPLAMSLSARGWQVTGSKTTQDGVEAARMSGIDSYLLRMEPELVCDSDDLDALMDADALVITLPARRSGPGDEFYLQAVQELVDSALAHRIPRIIFTSSTSVYGDAQGTVKETTPRNPVTNSGRVLEELEDWLHNLPGTSVDILRLAGLVGPGRHPGRFFAGKTAPDGEHGVNLVHLEDVIGAITLLLQAPKGGHIYNICAPAHPARNVFYPQMARLLGLEPPQFRNSLDSGKGKIIDGSRICNELGFEYQYPDPLVMPLELEHHHHHH,not soluble
20,MKKVGVVIPIYNVEKYLKECLDSVINQTYTNLEIILVNDGSTDENSLNIAKEYTLKDKRIILFDKKNGGLSSARNVGIEYFSGEYETQYIEKENELNVFKIIGDNPQNIYKIYKYKNALASDKLEISKIDYIIFLDSDNYWELNCIEECVVRMQNVDVLWFDHACIYDDGIEDKGQKTRMNVFNFTQECTITPRDYAKQAIKVGSRDISFSWGGMIDFSFLKQLKLKFINKIINEDIHFGMVLFASADSIYILPKRLYLCRLRANSISNHDKKVTKANVSEYFKDLYEFFGENAKEAKNYLKAASRMITALELIEFFKDQKNENSQAIKEAFLPFYVKKALMIKKFKKDPLNLKEKLPIIKPFIQTKIPYDLWKIWQKIKGILDKINFAK,soluble
21,MKKVIKKYFFLALAIIMYSCNEDEKYDILERYTPETITSDEIAPVLNLQAQYMDSNSEIVLVTWMNPEDDFLSKVEISCCSANDNLLGEPVLLDAVSTKVGSYQTSLSVEERGYVKIVAINEKGVRSEARTAEILSSQQDFVYRADCLMSSVIELFFGGRYNAWNENYPNATGPYWDGIAAVWGQGAAYSGFVTMYKVTKETNNEKLRAKYAEKEETFLNSIDIFLNNGSGRKSFAYGTYIGPNDERYYDDNVWIGIEMANLYELTGNEVYLQHANTVWNFILEGIDDVTGGGVYWKEGAVSKHTCSTAPAAVMALKLYQLSKNESYLEIAKSLYSYCKDVLQDPNDYLFYDNVRLSDPSDKNSELKVSKDKFTYNSGQPMLAAAMLYRITKEEQFLKDAQNIAQSIYKKWFKNYHSSILDRDIMILSDPNTWFNAVMFRGFVELYKIDKNDVYVKAVKNTMEHAWQSNCRNRLTNLMSDDYAGDKKEGKWNIKTQGAFVEIFSLIGELEQLGCFQELEHHHHHH,not soluble
22,MKKVNLAVVGATGMVGRTFIKVLEERNLPIDNIYFFSSSRSAGSTVTFNNKEYVVEELTETSFDRGIDIALFSAGASVSEKFAPIAASKGCVVVDNSSCWRMNEKVPLVVPEVNPQDISCHQGIIANPNCSTIQAVVVLKPLHDKYKIKRIVYSTYQAVSGAGHNGYMDLENGLKGEPPKKFPHPIAGNCLPHIDSFLPNGYTKEEMKMVNETRKILGDYSIRITATTVRVPVFNGHSESINVEFEKQFDLEELKEVLRNAPGVVVQDDVANNVYPMPIYASGRDETFVGRIRRDESVESGVNLWVVADNIRKGAATNAVQIAEELIKMWNK,soluble
23,MKKVYFATKADVERLHSFFGQANKKDDKINELYAQFMILEEAEEIRAVIGYEQSGEDVLIRSCLFTPHVDKQTFLYFFEMFLQYMKEKSVQQLYLLTNHPQSVPIFQFFDFFTIEKDEVPEGIQQLEHFCKNIKEQNAIILNCQLFTKLSTD,not soluble
24,MKKVYFNHDGGVDDLVSLFLLLQMDNVELTGVSVIPADCYLEPAMSASRKIIDRFGKNTIEVAASNSRGKNPFPKDWRMHAFYVDALPILNESGKVVTHVAAKPAHHHLIETLLQTEEKTTLLFTGPLTDLARALYEAPIIENKIKRLVWMGGTFRTAGNVHEPEHDGTAEWNSFWDPEAVARVWEANIEIDLITLESTNQVPLTIDIREQWAKERKYIGIDFLGQCYAIVPPLVHFAKNSTYYLWDVLTAAFVGKADLAKVQTINSIVHTYGPSQGRTVETDDGRPVHVVYDVNHDRFFDYITRLAKKVST,soluble
